Data on 2 molecules can be found in patent EP1096011A1, “Microbiological production method for alpha-l-aspartyl-l-phenylalanine” (Holland Sweetener Company V.o.F., priority 1999, dated 2001).

Common to all, as to assay: ATP-PPi exchange reaction (amino acid activation)
Data set [1] has as its system Asp-Phe-His6, hybrid Asp-Phe dipeptide synthetase (Asp module of Bacillus subtilis ATCC 21332 srfA-B, Phe minimal module of Bacillus brevis ATCC 8185 tycA) …. In kind it is biochemical, Bacillus subtilis ATCC 21332 / Bacillus brevis ATCC 8185. The settings on record: 37°C. Here is the method:
(§1) Specificity of amino acid activation was determined indirectly by incorporation of labelled ^32PPi into ATP during reverse reaction (Lee, S.G. & Lipmann, F.; Tyrocidine synthetase system; Methods Enzymol. 43, 1975, p.585-602). For this purpose 20 pmol of each enzyme was incubated with 1 mM amino acid, 1 mM ATP, 0,1 mM PPi, 50 mM HEPES, 100 mM NaCl and 10 mM MgCl2 and 2 mCi ^32PPi at 37°C in a total volume of 100 µL. Reactions were quenched after 10 min by adding 500 µL of a solution containing 100 mM NaPPi, 560 mM perchloric acid and 1,2% (w/v) active charcoal. The mixture was centrifuged at 13000 rpm for 1 min. The pellet was washed and resuspended twice with 1 mL H2O.
(§2) Incorporation of labelled ATP (adsorbed to the charcoal) was detected by measuring radioactivity of the precipitate. […] KM values for Asp and ATP were determined to be 3,5 mM and 0,9 mM respectively. KM values for Leu and ATP were detected to be 0,3 mM and 0,6 mM, respectively.
(§3) The KM value for Phe was determined to be about 50 µM.

Data set [2] has as its system Asp-Phe-TE-His6, hybrid Asp-Phe dipeptide synthetase with integrated srfA-C thiolation and TE domain, His6-tagged. It is filed as biochemical, Bacillus subtilis ATCC 21332 / Bacillus brevis ATCC 8185. The settings on record: 37°C. On the procedure: as §1, §2, §3
Substrate in data set [3]: CC(C)C[C@H](N)C(=O)O
It is filed as biochemical, Bacillus subtilis ATCC 21332. The settings on record: other: ATP-PPi exchange, 37°C. On the procedure: as §1, §2

Substrate in data set [4]: N[C@@H](CC(=O)O)C(=O)O
It is filed as biochemical, Bacillus subtilis ATCC 21332. The settings on record: other: ATP-PPi exchange, 37°C. On the procedure:
as §1, §2

Substrate in data set [5]: Nc1ncnc2c1ncn2[C@@H]1O[C@H](COP(=O)(O)OP(=O)(O)OP(=O)(O)O)[C@@H](O)[C@H]1O
It is filed as biochemical, Bacillus subtilis ATCC 21332. The settings on record: other: ATP-PPi exchange, 37°C. On the procedure: as §1, §2

As usually defined, the Km is the substrate concentration at which the rate is half of its maximum.

As to `N[C@@H](Cc1ccccc1)C(=O)O` [Phe, L-phenylalanine], the Km in data set [1] and in data set [2] was around 50 µM each time.

B1: Asp-Leu-His6, Asp-Leu dimodular peptide synthetase from Bacillus subtilis ATCC 21332 surfactin synthetase (srfA-B), His6-tagged (Bacillus subtilis subsp. … (protein)
chain: PNVRLSDVDLLSSAETAALLEERHMTQITEATFAALFEKQAQQTPDHSAVKAGGNLLTYRELDEQANQLAHHLRAQGAGNEDIVAIVMDRSAEVMVSILGVMKAGAAFLPIDPDTPEERIRYSLEDSGAKFAVVNERNMTAIGQYEGIIVSLDDGKWRNESKERPSSISGSRNLAYVIYTSGTTGKPKGVQIEHRNLTNYVSWFSEEAGLTENDKTVLLSSYAFDLGYTSMFPVLLGGGELHIVQKETYTAPDEIAHYIKEHGITYIKLTPSLFHTIVNTASFAKDANFESLRLIVLGGEKIIPTDVIAFRKMYGHTEFINHYGPTEATIGAIAGRVDLYEPDAFAKRPTIGRPIANAGALVLNEALKLVPPGASGQLYITGQGLARGYLNRPQLTAERFVENPYSPGSLMYKTGDVVRRLSDGTLAFIGRADDQVKIRGYRIEPKEIETVMLSLSGIQEAVVLAVSEGGLQELCAYYTSDQDIEKAELRYQLSLTLPSHMIPAFFVQVDAIPLTANGKTDRNALPKPNAAQSGGKALAAPETALEESLCRIWQKTLGIEAIGIDDNFFDLGGHSLKGMMLIANIQAELEKSVPLKALFEQPTVRQLAAYMEASAVSGGHQVLKPADKQDMYPLSSAQKRMYVLNQLDRQTISYNMPSVLLMEGELDISRLRDSLNQLVNRHESLRTSFMEANGEPVQRIIEKAEVDLHVFEAKEDEADQKIKEFIRPFDLNDAPLIRAALLRIEAKKHLLLLDMHHIIADGVSRGIFVKELALLYKGEQLPEPTLHYKDFAVWQNEAEQKERMKEHEAYWMSVLSGELPELDLPLDYARPPVQSFKGDTIRFRTGSETAKAVEKLLAETGTTLHMVLHAVFHVFLSKISGQRDIVIGSVTAGRTNADVQDMPGMFVNTLALRMEAKEQQTFAELLELAKQTNLSALEHQEYPFEDLVNQLDLPRDMSRNPLFNVMVTTENPDKEQLTLQNLSISPYEAHQGTSKFDLTLGGFTDENGIGLQLEYATDLFAKETAEKWSEYVLRLLKAVADNPNQPLSSLLLVTETEKQALLEAWKGKALPVPTDKTVHQLFEETVQRHKDRPAVTYNGQSWTYGELNAKANRLARILMDCGISPDDRVGVLTKPSLEMSAAVLGVLKAGAAFVPIDPDYPDQRIEYILQDSGAKLLLKQEGISVPDSYTGDVILLDGSRTILSLPLDENDEGNPETAVTAENLAYMIYTSGTTGQPKGVMVEHHALVNLCFWHHDAFSMTAEDRSAKYAGFGFDASIWEMFPTWTIGAELHVIDEAIRLDIVRLNDYFETNGVTITFLPTQLAEQFMELENTSLRVLLTGGDKLKRAVKKPYTLVNNYGPTENTVVATSAEIHPEEGSLSIGRAIANTRVYILGEGNQVQPEGVAGELCVAGRGLARGYLNREDETAKRFVADPFVPGERMYRTGDLVKWVNGGIEYIGRIDQQVKVRGYRIELSEIEVQLAQLSEVQDAAVTAVKDKGGNTAIAAYVTPETADIEALKSTLKETLPDYMIPAFWVTLNELPVTANGKVDRKALPEPDIEAGSGEYKAPTTDMEELLAGIWQDVLGMSEVGVTDNFFSLGGDSIKGIQMASRLNQHGWKLEMKDLFQHPTIEELTQYVERAE
For B1, the Km came out at 300 µM in data set [3], 3500 µM in data set [4], 900 µM in data set [5] (ATP value paired with Asp (Asp activation)) and 600 µM in data set [5] (ATP value paired with Leu (Leu activation)).
